According to patent US7285654 (SIGNAL PHARMACEUTICALS, dated 2007):
Square brackets hold non-standard residues; d marks the D form. Ends that are not written are not given here. pS = N[C@@H](COP(=O)(O)O)C(=O)O

Target: IKK signalsome (stimulus-inducible IκB kinase complex) immunopurified from TNFα-stimulated HeLa cells (human)
Assay: product inhibition of immunopurified IKK signalsome; 32P incorporation into GST-IκBα (1-54), TCA precipitation, Dixon analysis

IKK signalsome (stimulus-inducible IκB kinase complex) immunopurified from TNFα-stimulated HeLa cells (human), sequence (chain, as listed by the source, chain 1 of 3): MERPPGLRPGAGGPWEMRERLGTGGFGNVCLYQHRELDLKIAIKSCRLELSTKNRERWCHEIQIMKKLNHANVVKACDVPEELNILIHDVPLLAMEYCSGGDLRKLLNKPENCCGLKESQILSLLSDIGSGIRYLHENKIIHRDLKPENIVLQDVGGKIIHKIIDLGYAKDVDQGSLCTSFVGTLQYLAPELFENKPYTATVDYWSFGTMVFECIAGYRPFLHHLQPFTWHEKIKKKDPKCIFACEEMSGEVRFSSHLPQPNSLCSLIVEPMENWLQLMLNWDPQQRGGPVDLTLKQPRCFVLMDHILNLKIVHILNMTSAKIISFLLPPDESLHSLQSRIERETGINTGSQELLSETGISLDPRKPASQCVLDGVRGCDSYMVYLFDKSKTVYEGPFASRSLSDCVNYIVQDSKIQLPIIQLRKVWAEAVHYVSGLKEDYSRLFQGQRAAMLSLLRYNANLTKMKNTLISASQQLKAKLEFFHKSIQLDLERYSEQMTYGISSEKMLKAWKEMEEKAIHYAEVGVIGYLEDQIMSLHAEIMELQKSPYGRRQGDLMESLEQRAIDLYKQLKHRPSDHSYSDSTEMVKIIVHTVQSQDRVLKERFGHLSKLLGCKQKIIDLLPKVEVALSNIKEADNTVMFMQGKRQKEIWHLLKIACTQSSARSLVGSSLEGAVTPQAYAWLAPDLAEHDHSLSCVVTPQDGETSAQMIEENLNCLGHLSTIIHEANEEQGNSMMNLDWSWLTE
IKK signalsome (stimulus-inducible IκB kinase complex) immunopurified from TNFα-stimulated HeLa cells (human), sequence (chain, as listed by the source, chain 2 of 3): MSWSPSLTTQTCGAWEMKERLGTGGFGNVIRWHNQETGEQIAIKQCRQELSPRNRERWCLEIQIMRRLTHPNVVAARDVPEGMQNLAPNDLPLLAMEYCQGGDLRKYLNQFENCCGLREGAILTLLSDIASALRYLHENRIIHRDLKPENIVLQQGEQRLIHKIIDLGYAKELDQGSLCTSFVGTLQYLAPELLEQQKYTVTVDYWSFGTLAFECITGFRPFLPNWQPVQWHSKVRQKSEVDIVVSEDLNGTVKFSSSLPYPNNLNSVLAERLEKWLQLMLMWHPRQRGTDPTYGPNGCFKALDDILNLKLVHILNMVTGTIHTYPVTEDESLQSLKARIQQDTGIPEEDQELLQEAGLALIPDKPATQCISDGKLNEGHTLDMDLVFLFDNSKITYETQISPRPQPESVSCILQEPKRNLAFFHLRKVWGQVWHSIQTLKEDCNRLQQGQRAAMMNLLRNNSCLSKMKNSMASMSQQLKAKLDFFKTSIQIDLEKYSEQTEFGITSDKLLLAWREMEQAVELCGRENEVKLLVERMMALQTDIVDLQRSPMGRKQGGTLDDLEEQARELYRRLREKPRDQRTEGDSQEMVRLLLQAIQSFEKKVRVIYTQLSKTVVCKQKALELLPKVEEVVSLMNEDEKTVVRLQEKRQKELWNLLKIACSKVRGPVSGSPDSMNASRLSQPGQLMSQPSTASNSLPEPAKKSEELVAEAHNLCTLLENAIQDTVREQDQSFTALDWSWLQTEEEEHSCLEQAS
IKK signalsome (stimulus-inducible IκB kinase complex) immunopurified from TNFα-stimulated HeLa cells (human), sequence (chain, as listed by the source, chain 3 of 3): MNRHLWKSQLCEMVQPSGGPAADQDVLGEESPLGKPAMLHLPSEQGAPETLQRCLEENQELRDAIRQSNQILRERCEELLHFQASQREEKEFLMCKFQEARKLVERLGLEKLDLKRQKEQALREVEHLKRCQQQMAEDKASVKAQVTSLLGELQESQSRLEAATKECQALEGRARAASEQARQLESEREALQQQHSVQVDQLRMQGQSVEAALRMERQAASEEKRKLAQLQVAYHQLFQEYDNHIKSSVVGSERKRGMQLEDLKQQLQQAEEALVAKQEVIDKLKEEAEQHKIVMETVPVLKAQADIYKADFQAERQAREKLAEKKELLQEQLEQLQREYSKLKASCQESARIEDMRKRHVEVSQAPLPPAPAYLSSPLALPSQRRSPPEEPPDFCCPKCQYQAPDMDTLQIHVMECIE

B1: IκBα (21-41) peptide P32,36 (doubly phosphorylated IκBα peptide bearing phosphoserines at both positions 32 and 36) (peptide)
peptide: CKKERLLDDRHD[pS]GLD[pS]MKDEE
notes: The phosphorylated forms are described as the same peptide chemically phosphorylated; also called P32, 36 peptide
Ki: 14 µM
